Results reported in US20050221433A1 (Regeneron, published 2005).

Experiments:
[1] = target: T1, recombinant human IL-18 (human, UniProt Q14116 37-193); assay: cell-based or functional assay
T1 sequence (looked up): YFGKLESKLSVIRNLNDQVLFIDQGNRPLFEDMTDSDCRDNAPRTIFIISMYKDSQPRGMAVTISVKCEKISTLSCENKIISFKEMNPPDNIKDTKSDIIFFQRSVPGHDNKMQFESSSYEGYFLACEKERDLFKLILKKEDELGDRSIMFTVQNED

[2] = target: T1, recombinant human IL-18; assay: printed in the IC50 (M) column of Table 2 (HEK293/NFkB-luciferase hIL-18 inhibition bioassay, CHO transient supernatant)
Source text: hIL-18 Inhibition. The HEK293/NFkB-luciferase bioassay is used to determine the ability of the IL-18-specific polypeptides of the invention to block the activity of human IL-18 (hIL-18). Human embryonic kidney 293, HEK293, cells, were transfected with an NFκB-luciferase reporter plasmid. By placing an NFκB promoter element upstream of the luciferase gene one can monitor NFκB activity in cells. Because IL-18 signaling is mediated by NFκB, when cells containing the 293/NFκB luciferase construct and the IL-18 receptors are stimulated with hIL-18, the luciferase gene is expressed and luciferase activity can be detected in cell lysates. A stable, transfected, cell line, HEK293/D9, was selected for good response to IL-1 as detected by luciferase activity. This line was transfected with the human IL-18Rα (IL-IRrp) and IL-18Rβ (IL1RAcPL) receptors and stable cell lines that responded to IL-18 with a strong luciferase signal were isolated. These cells are called hIL-18-NFκB-luciferase cells.
For the assay, hIL-18-NFκB-Luciferase cells were suspended at 1.25×10⁵ cells per ml in medium and 0.08 ml of cells plated (10,000 cells per well) into the wells of a 96 well tissue culture plate. […] Plates were incubated at room temperature for ˜10 minutes and then read on a Victor multilabel counter (Luminescence 1 sec/well).

Binder | IC50 (M), HEK293/NFkB-luciferase bioassay [1] [M] | binding result [2]
hIL18BPa (58-192) (C129S).His (receptor) AAKQCPALEVTWPEVEVPLNGTLSLSCVACSRFPNFSILYWLGNGSFIEHLPGRLWEGSTSRERGSTGTQLSKALVLEQLTPALHSTNFSCVLVDPEQVVQRHVVLAQLWAGLRATLPPTQEALPSSHSSPQQQGHHHHHHHH | 3.9e-11 | 
hIL18BPa (1-192) (C49S, C129S).His (receptor) TPVSQTTTAATASVRSTKDPSPSQPPVFPAAKQCPALEVTWPEVEVPLNGTLSLSCVACSRFPNFSILYWLGNGSFIEHLPGRLWEGSTSRERGSTGTQLSKALVLEQLTPALHSTNFSCVLVDPEQVVQRHVVLAQLWAGLRATLPPTQEALPSSHSSPQQQGTGHHHHHHHH | 8.59e-11 | 
hIL18BPa (1-181) (C49S, C129S).His (receptor) TPVSQTTTAATASVRSTKDPSPSQPPVFPAAKQCPALEVTWPEVEVPLNGTLSLSCVACSRFPNFSILYWLGNGSFIEHLPGRLWEGSTSRERGSTGTQLSKALVLEQLTPALHSTNFSCVLVDPEQVVQRHVVLAQLWAGLRATLPPTQEALTGHHHHHHHH | 1.23e-10 | 
hIL18BPa (72-192).TG.hFc (Fc fusion, not shown: hFc (human Fc)) VEVPLNGTLSLSCVACSRFPNFSILYWLGNGSFIEHLPGRLWEGSTSRERGSTGTQLCKALVLEQLTPALHSTNFSCVLVDPEQVVQRHVVLAQLWAGLRATLPPTQEALPSSHSSPQQQGTG |  | no binding
